This note sets out measurements from article PMC3503981.

This experiment addresses PfUDN, N-terminal fragment of Plasmodium falciparum UvrD helicase (P. falciparum 3D7).

Regarding “PfMLH (P. falciparum MutL homologue) (natural protein)”, the stimulation of the unwinding (helicase) activity of PfUDN (10 nM) on the 3′ to 5′ direction-specific substrate 3B by PfMLH (8 and 16 nM) pre-incubated with the substrate, against PfUDN alone was in the range of 22 to 36%.
